A value given as a limit tells only on which side of the number the result lay.

In test [1] the target is monkey (crab-eating macaque) CDH17 fused to moxGFP, overexpressed on HEK293T cells (monkey (crab-eating macaque)). The test is described as follows: KinExA, cell-based, HEK293T monkey CDH17mGFP mass population. (A kinetic exclusion assay measures how much of one partner remains free in solution.)
Test [2] has the same target. The experiment in a line: flow cytometry on HEK293T monkey CDH17mGFP mass population, 20 µg/ml. On the technique in general: In flow cytometry, cells or beads pass a laser one at a time.
Test [3] has the same target. The test is described as follows: KinExA, cell-based, HEK293T overexpressing monkey CDH17 fusion (FIG. 16).
Test [4] has the same target. The test is described as follows: flow cytometry (BD C6), 1 µg antibody on HEK293T Macaque CDH17 moxGFP cells, labelled anti-human IgG Fc secondary antibody; same antibody on HEK293T Parental: 600.46.
For test [5] the target is unchanged. The experiment in a line: flow cytometry (BD C6), 1 µg antibody on HEK293T Macaque CDH17 moxGFP cells, labelled anti-human IgG Fc secondary antibody; same antibody on HEK293T Parental: 593.57.
The target is the same in test [6]. The experiment in a line: flow cytometry (BD C6), 1 µg antibody on HEK293T Macaque CDH17 moxGFP cells, labelled anti-human IgG Fc secondary antibody; same antibody on HEK293T Parental: 817.99.

B1: humanized anti-CDH17 antibody 07-0663-h7 (antibody, human IgG1, kappa, V domains shown)
VH: QVQLVQSGAEVKKPGSSVKISCKVSGYTFTDHTIHWMRQAPGQGLEWIGYIFPRDDIVVYAQKFQGRATLTADKSTSTAYMELSSLRSEDTAVYYCARPPYYYSRNFYFDYWGQGTTLTVSS
VL: DIQMTQSPSSLSASVGDRVTITCRVSSIISSSKLHWYQQKPGKAPKPLIYGTSTLASGVPSRFSGSGSGTDYTLTISSLQPEDFATYYCQQWSNYPFTFGQGTKLEIKR
Broadly, the Kd is the constant that tells how readily two partners part at equilibrium. B1: the values for the dissociation constant (Kd) in test [1] and in test [3] were 0.336 nM and under 1 nM, respectively. The Cross Reactivity by Flow in test [2] was 41300. In addition, the FL4-H in test [4] was determined as 159000.

B2: humanized anti-CDH17 antibody 07-0646-h7 (antibody, human IgG1, V domains shown)
VH: QVQLVQSGAEVKKPGASVKMSCKASGYTFTSYNMHWVRQAPGQGLEWIGAIYPGNGDTSYAQKFQGRATLTVDTSTSTAYMELSSLRSEDTAVYYCARGRGRYFEYWGQGTTLTVSS
VL: DIQLTQSPSSLSASVGDRVTMTCRASSSVSSSYLHWYQQKPGKAPKLLIYSTSNLASGVPSRFSGSGSGTDYTLTISSVQPEDFATYYCQQYDSSPSTFGQGTKLEIK
As to B2, the dissociation constant Kd in test [1] is 0.657 nM; in test [3] it was under 1 nM. The Cross Reactivity by Flow in test [2] is 16900. Also, in test [5], the FL4-H amounted to 145000.

B3: humanized anti-CDH17 antibody 07-0653-h43 (antibody, human IgG1, V domains shown)
VH: QVQLVQSGAEVKKPGASVKVSCKASGYTFTDYYMNWVRQAPGQGLEWMGVIYPYSGGIGYAQKFQGRVTMTVDKSTSTAYMELSSLRSEDTAVYYCARGRGDYFGLFDFWGQGTTVTVSS
VL: DIQLTQSPSSLSASVGDRVTITCRATSSLSYIHWYQQKPGKAPKPLIYEISKLASGVPSRFSGSGSGTDYTLTISSLQPEDFATYYCQQWNYPFTFGQGTKLEIK
As for B3, the equilibrium dissociation constant (Kd) was 0.946 nM in test [1] and under 1 nM in test [3]. The same molecule came in with a Cross Reactivity by Flow in test [2] of 29800. In addition, the FL4-H in test [6] turned out to be 182000.
